Results reported in patent US20210268016A1 (YALE UNIVERSITY, published 2021).

Target: biotinylated Aβ1-42 oligomers (Aßo) prepared from biotinylated synthetic Aβ1-42 peptide (human)
Assay: biolayer interferometry, biotinylated Aßo on streptavidin sensor

B1: recombinant full-length human PrP^C (AA23-231) (receptor)
chain: not shown
- binding result: binds
